B1: 50 (nucleic acid, listed as Homo sapiens)
chain: AATTCAACATGGCAGCCATGCGCTGGCGATGGTGGCAGCGGCTGTTACCTTGGAGGTTGCTGCAGGCCCGTGGCTTTCCACAAAATTCTGCACCCAGCCTGGGCCTAAGAGCGAGGACTTATTCCCAGGGCGACTGCTCGTATTCGCGCACGGCGCTGTATGATCTGCTCGGCGTCCCCTCCACAGCCACGCAGGCCCAAATCAAGGCGGCTTACTACCGTCAGTGCTTTCTCTACCACCCGGACCGCAACTCCGGGAGCGCGGAGGCCGCCGAGCGCTTCACGCGCATCTCCCAGGCCTACGTGGTGCTGGGCAGTGCCACCCTCCGTCGCAAGTATGATCGCGGCCTACTCAGCGACGAGGACCTGCGCGGACCTGGCGTCCGGCCCTCCAGGACGCCCGCACCCGACCCCGGCTCGCCGCGTACCCCGCCGCCCACCTCTCGGACCCACGACGGTTCTCGGGCCTCCCCCGGCGCCAACCGCACGATGTTCAACTTTGACGCCTTCTACCAGGCCCACTACGGGGAACAACTGGAGCGGGAACGGCGCCTGAGGGCCCGGCGGGAGGCCCTTCGCAAACGGCAGGAGTATCGGTCCATGAAAGGCCTCCGCTGGGAGGATACCCGAGACACGGCTGCCATTTTCCTCATCTTTTCAATCTTCATCATCATCGGCTTTTATATTTAATCGGAGAGAGAAGGGAAGGGGAGTGTCCCCAGCCAACCCCCCAGAAACGGCCTTTTTTCCTGCCTCTGAACCCTTGGCCGTTGATAGTCTACCTTTGCTGGGATCCGAAGGAACTGTACTCCCCCTGCCCTCCCCGACCCGCCCAGCTTAGCCGATGACCTGCACATCGCTCCACTGTGGTCCAGAAAAGGAGGCCTTTCGATGTCTGAGAAAGAGGCCCCACGCTGTAGAGTCCCGAAAGCCCAGGAGTGAAGGGGGTTCCTGGAGTCTCTAGGGTGCTTCTTCCAGAGTCTGTCTTCTTGCTTCCAGATGTGGTCAACTTCTGGAACACTCGCTGTAGCTTTATTGTTTAGCCCCAAGCAAGATTTATCTCCTCCTGCCCCGCATGTGTATGGTGGGCCTCTGTAACCTTGAAATGTGCAATGTGACCAATTGTTGACTACCAAAAGAAAAGGTCTGGGGTTGT
modifications: CDS (9)..(686)
B2: 241 (nucleic acid, listed as Homo sapiens)
chain: GGGGTGTCCAGTTGGTTGCCGCGGCAGTCTCTCCGAGCAGCGCATTTGTCTTCTAGGCTGCTTGGTTCGTGCCTCCGAGAAAGGGGTCTCCTGCTGCCAGCTAAGTGTGGGAGAACTTGTGCACGTATCTCCCCTCCGAATCCCAACGATGGGTAACGCCAGCTTTGGCTCCAAGGAACAGAAGCTGCTGAAGCGGTTGCGGCTTCTGCCCGCCCTGCTTATCCTCCGCGCCTTCAAGCCCCACAGGAAGATCAGAGATTACCGCGTCGTGGTAGTCGGCACCGCTGGTGTGGGGAAAAGTACGCTGCTGCACAAGTGGGCGAGCGGCAACTTCCGTCATGAGTACCTGCCGACCATTGAAAATACCTACTGCCAGTTGCTGGGCTGCAGCCACGGTGTGCTTTCCCTGCACATCACCGACAGCAAGAGTGGCGACGGCAACCGCGCTCTGCAGCGCCACGTTATAGCCCGGGGCCACGCCTTCGTCCTGGTCTACTCAGTCACCAAGAAGGAAACCCTGGAAGAGCTGAAGGCCTTCTATGAGCTGATCTGCAAGATCAAAGGTAACAACCTGCATAAGTTCCCCATCGTGCTGGTGGGCAATAAAAGTGATGACACCCACCGGGAGGTGGCCCTGAATGATGGTGCCACCTGTGCGATGGAGTGGAATTGCGCCTTCATGGAGATTTCAGCCAAGACCGATGTGAATGTGCAGGAGCTGTTCCACATGCTGCTGAATTACAAGAAAAAGCCCACCACCGGCCTCCAGGAGCCCGAGAAGAAATCCCAGATGCCCAACACCACTGAGAAGCTGCTTGACAAGTGCATAATCATGTGAGCCCTGGGCCTTAAGAGCCAGCTCTTCCTATCCTGTAGCGTGTAGAAAACGTGGACTCATTTCACTATGTTACATGTACATGGTTGATTTTGTGCTGTTGTTTGGACTGTAACATCCATGTTGTCAATACGTATACCTTGTAAGTGGATAACTTTTCTTTTTCCCAGGCCAGAGAATTCAAATTGTTAAAACATTGGCATTTGAAGAGGAGAACAAAATGTAGCATGATGTATTTAAAGTAAGGCCTTTAGTAATGAATGTAATGAGAGAAAATGTTTTGAAAAGAACAAAACATCAAAATGAATAGAAAGAAAAATTGGAAGGCGTCCTTTTGGTAACCCGATTATTGTGTATTACCTTTAAATATTTCACATCCTGTAAGTGCTTAATCATATCTTTTAATTGTGTATTTAAGAAAAGTGTTTTCACAACAAAAGCTTTTGATAAATTGCTGCGTGACATATACTAAATAAAAAAATGAATATGTTGATCATTAGGGGTGTGGGAGCAGAGAAAATTGTGAAAGTGACTCTCACTAAAGATGTTAGTAGTTTCTCATGTCATTTAAAAATGTTTGAGTATTCTGCATAGCAGTTTGTAAAAGTGTAACAGCTTATTGACTTAATAAAGCTTTTCCTGCATGC
modifications: CDS (149)..(835)
B3: 56 (nucleic acid, listed as Homo sapiens)
chain: AGAGCCGCCGCCCAGGAAGGGGATGCGGAAACCCCTGGCTCGGTGGAGCGGAGAGGCAGGCGGGCAGGAGCCGAGGACGGCATGTCCCAGGCCCCGGGAGCACAGCCGAGCCCACCCACCGTGTACCACGAACGGCAGCGCCTGGAGCTGTGTGCTGTCCACGCCCTCAACAACGTTCTGCAGCAGCAGCTCTTTAGCCAGGAGGCTGCCGATGAGATCTGCAAGAGGTTGGCCCCAGACTCCCGGCTGAACCCTCATCGCAGCCTCCTGGGCACCGGCAACTATGATGTCAATGTGATCATGGCCGCTCTGCAGGGGCTGGGCCTGGCCGCCGTGTGGTGGGACAGGAGGAGGCCCCTGTCCCAGCTGGCCCTGCCCCAGGTACTGGGGCTGATCCTGAACCTGCCCTCGCCCGTGTCGCTGGGGCTGCTGTCACTGCCGCTGCGCCGGCGGCACTGGGTGGCCCTGCGCCAGGTGGACGGTGTCTACTACAACCTGGACTCCAAGCTGCGGGCGCCCGAGGCCCTGGGGGATGAGGACGGAGTCAGGGCCTTCCTGGCGGCTGCGCTGGCCCAGGGCCTGTGCGAGGTGCTGCTGGTAGTGACCAAGGAGGTGGAGGAGAAGGGCAGCTGGCTGCGGACAGACTGACCATGGCTGACCATCGGCGCCCACAGCGCAGTCCCTGCGCATCCCCCTCCGGCTGCGCACACTGCATGCCTGGGAAAGGCCAGCACTTCATGGACCCTGGGGAGGCCCCGCCCCCTCCCCACACCCCTGCTCCCCACTGCCGCTGCTGCCTCAATAAATCTGCTGATTTGCTGCC
modifications: CDS (82)..(645)

Tested on: STAT6
Experiment: Screening of full-length cDNA clones for promotion of STAT6 activation (luciferase reporter N4×8-luc)
Type: cell-based
Settings: NIH3T3 cells cotransfected with N4×8-luc reporter and cDNA plasmid; 48 h culture, then mouse IL-4 0.5 ng/ml for 6 h
Procedure: As a preferable method, NIH3T3 cells are inoculated on 10% FBS (Fetal Bovine Serum)-containing IMDM medium in a 96-well cell culture plate to a final cell density of 1×10^4 cells/well, and cultured for 24 hours at 37° C., in the presence of 5% CO2. Then, the luciferase reporter plasmid N4×8-luc which has a STAT6 response sequence, and the expression vector are cotransfected into the cells in a well using FuGENE 6 (Roche). After 48 hours of culture at 37° C., in the presence of 5% CO2 mouse IL-4 (Immuno Biological Laboratories Co., Ltd.) is added to a final concentration of 0.5 ng/ml. After culturing for further 6 hours, promoting activity for STAT6 activation is then measured by measuring luciferase activity using a long term luciferase assay system, Picagene LT2.0 (Toyo Ink Mfg). For example, luciferase activity can be measured using PerkinElmer's Wallac ARVOTMST 1420 MULTILABEL COUNTER. The method for gene introduction by FuGENE6, and measurement of luciferase activity by Picagene LT2.0 can be performed respectively according to the attached protocols. In a method of gene introduction with a 96-well plate using FuGENE6, the amount of FuGENE6 per 1 well is suitably 0.3 to 0.5 μl, preferably 0.3 μl; the amount of N4×8-luc reporter plasmid is suitably 50 to 100 ng, preferably 100 ng; and the amount of expression vector is suitably 50 to 100 ng, preferably 100 ng. An ability (action) to promote STAT6 activation refers to an ability to increase the reporter activity (luciferase activity) relative to the control experiment (for cells into which the reporter gene and a null vector were introduced). Increase in reporter activity is preferably by a factor of 1.5 or more, more preferably by a factor of 3 or more, and still more preferably by a factor of 6 or more.
NIH3T3 cells (purchased from Dainippon Pharmaceutical) were grown to 1×10^4 cells/well in a 96 well plate for cell culture for 24 hours at 37° C. (in the presence of 5% CO2) using 10% FBS containing IMDM medium. Then, 100 ng of luciferase reporter plasmid N4×8-luc having a STAT6 response sequence and 2 μl of the full-length cDNA prepared in above Example 1.(3) were cotransfected into the cells in a well using FuGENE 6 (purchased from Roche) according to the manufacturer's protocol. The luciferase reporter plasmid N4×8-luc having the STAT6 response sequence was constructed as follows. […] 157, 2058-2065 (1996)], oligonucleotides having the following sequences were synthesized:
The synthesized oligonucleotides were dissolved in sterile water to be 1μg/μl, respectively, mixed in 10 μl lots, and adjusted the volume to 32 μl with sterile water. The solution was heated for 5 min at 90° C., and gradually cooled down to room temperature to prepare a double-stranded oligonucleotide solution. The solution was reacted with T4 polynucleotide kinase (Takara Shuzo) according to the attached manual, then the reaction product was purified in a usual manner. Separately, SV40 promoter region of pGL3-Promoter vector (Promega) was replaced by the HSV thymidine kinase promoter sequence (from −50 to +10) with Hind III site and BglII site to construct a vector tk-luc. The aforesaid double-stranded oligonucleotide fragments were inserted into the XhoI site of this tk-luc vector using T4 DNA ligase (GIBCO/BRL). The obtained clones were sequenced according to a usual method, and clones in which plural oligonucleotide fragments were inserted were selected. […] The four-interlinked DNA fragments were excised from the N4×4-luc with a XhoI and a BglII site and purified to be inserted into a BamHI and a XhoI site of pBluescript II KS+ (Stratagene). The four-interlinked DNA fragments were excised from this plasmid with KpnI and SpeI and inserted into a KpnI and a NheI site of N4×4-luc plasmid to finally obtain N4×8-luc.

Molecule | Activity = (luciferase activity of the gene of each SEQ ID NO:)/(luciferase activity of pME18S-FL3)
B1 | 18.5
B2 | 54.3
B3 | 4.7
